Our source for the Kd values is publication PMC3135172 (Cell, 2011).

This test concerns the target BPTF bromodomain (human). Description: ITC.

Where no end group is shown, it is not given here.

B1: H4K12ac peptide (peptide)
chain: GKGLGK(Ac)GGAKR
modifications: not fully specified
As to B1, binding was put at a Kd of 69 ± 1 µM.

What is called Kd is the concentration at which binding is half-saturated. A lower Kd goes with higher affinity.
